Test results from paper PMC5146914.

Assay: circular dichroism
Conditions: 10 mM PBS; pH 7.4; 25 °C; 50-800 uM

SMILES	helicity [rel %]
CC(=O)N[C@H]1CCCCC[S@@](=O)C[C@@H](C(N)=O)NC(=O)[C@H](C)NC(=O)[C@H](CO)NC(=O)[C@H](C)NC1=O	65
CC(=O)N[C@H]1CCCCC[S@@](=O)C[C@@H](C(N)=O)NC(=O)[C@H](CCC(=O)O)NC(=O)[C@H](C)NC(=O)[C@H](CCCCN)NC1=O	31
CC[C@H](C)[C@@H]1NC(=O)[C@H](C)NC(=O)[C@@H](NC(C)=O)CCCCC[S@@](=O)C[C@@H](C(N)=O)NC(=O)[C@H](C)NC1=O	86
CC(=O)N[C@H]1CCCCC[S@@](=O)C[C@@H](C(N)=O)NC(=O)[C@H](C)NC(=O)[C@H](C)NC(=O)[C@H](C)NC1=O	100
CC(=O)N[C@H]1CCCCC[S@@](=O)C[C@@H](C(N)=O)NC(=O)[C@H](C)NC(=O)[C@H](CCC(N)=O)NC(=O)[C@H](C)NC1=O	93
CC(=O)N[C@H]1CCCCC[S@@](=O)C[C@@H](C(N)=O)NC(=O)[C@H](C)NC(=O)CNC(=O)[C@H](C)NC1=O	54
CC(=O)N[C@H]1CCCCC[S@@](=O)C[C@@H](C(N)=O)NC(=O)[C@H](C)NC(=O)[C@H](Cc2ccccc2)NC(=O)[C@H](C)NC1=O	92
